± gives the uncertainty stated by the source.
Test: self-splicing fitness, log relative to wild type (ln ratio); higher = more splicing; Tetrahymena group I intron in knt gene, E. coli kanamycin selection, DiMSum; sequences stand for … in CUCUCU…GGAGGGAAAAGUUAUCAGGCAUGCACCUGGUAGCUAGUCUUUAAACCAAUAGAUUGCAUCGGUUUAAAAGGCAAGACCGUCAAAUUGCGGGAAAGGGGUCAACAGCCGUUCAGUACCAAGUCUCAGGGGAAACUUUGAGAUGGCCUUGCAAAGGGUAUGGUAAUAAGCUGACGGACAUGGUCCUAACCACGCAGCCAAGUCCUAAGUCAACAGAUCUUCUGUUGAUAUGGAUGCAGUUCACAGACUAAAUGUCGGUCGGGGAAGAUGUAUUCUUCUCAUAAGAUAUAGUCGGACCUCUCCUUAAUGGGAGCUAGCGGAUGAAGUGAUGCAACACUGGAGCCGCUGGGAACUAAUUUGUAUGCGAAAGUAUAUUGAUUAGUUUUGGAGUACUCGUGGUCG
Summary of the method: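 Fitness was computed with DiMSum as the error-weighted combination of replicate fold changes, kanamycin versus none, each normalised to wild type. The library randomised all eight intron nucleotides of the P1ex region, with the intron placed in the knt kanamycin-resistance gene on pET-22b(+) in E. coli BL21(DE3). Six replicate transformations were grown overnight at 37°C or 30°C on LB agar with or without 25 μg/mL kanamycin, plus 100 μg/mL carbenicillin, 50 μM IPTG and 0.2% rhamnose. Pooled colonies were amplicon-sequenced on an Illumina HiSeq 2500.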

| Sequence | self-splicing fitness (ln) (30 °C) | self-splicing fitness (ln) (37 °C) |
| --- | --- | --- |
| CUUAAGCAAUAUUACGCCAU | -1.9 ± 0.33 | -2.35 ± 0.29 |
| CUUAAGCAAUAUUACGCUAG | -3.35 ± 0.25 | -0.439 ± 0.19 |
| CUUAAGCAAUAUUACGCUGU | -4.48 ± 0.34 | -2.3 ± 0.23 |
| CUUAAGCAAUAUUACGCUUC | -3.15 ± 0.4 | – |
| CUUAAGCAAUAUUACGGACG | -0.229 ± 0.085 | 0.228 ± 0.12 |
| CUUAAGCAAUAUUACGGAGA | -2.45 ± 0.24 | -2.31 ± 0.29 |
| CUUAAGCAAUAUUACGGCCG | -0.607 ± 0.093 | -0.38 ± 0.13 |
| CUUAAGCAAUAUUACGGCCU | -2.74 ± 0.25 | -3.1 ± 0.44 |
| CUUAAGCAAUAUUACGGCGA | -4.04 ± 0.46 | -1.81 ± 0.34 |
| CUUAAGCAAUAUUACGGGGU | -3.09 ± 0.15 | -3.33 ± 0.29 |
| CUUAAGCAAUAUUACGGUAG | -1.58 ± 0.12 | -0.559 ± 0.12 |
| CUUAAGCAAUAUUACGGUCU | -4.28 ± 0.26 | -2.64 ± 0.29 |
| CUUAAGCAAUAUUACGGUUU | -4.49 ± 0.3 | -2.88 ± 0.4 |
| CUUAAGCAAUAUUACGUAAU | -2.96 ± 0.13 | -1.56 ± 0.12 |
| CUUAAGCAAUAUUACGUACA | – | -2.73 ± 0.39 |
| CUUAAGCAAUAUUACGUGAG | -3.73 ± 0.19 | -2.14 ± 0.14 |
| CUUAAGCAAUAUUACGUGUC | -4.45 ± 0.21 | -1.8 ± 0.15 |
| CUUAAGCAAUAUUACGUGUG | -1.18 ± 0.061 | -0.604 ± 0.074 |
| CUUCAGCAAUAUUACGAAGG | -2.06 ± 0.13 | -1.08 ± 0.18 |
| CUUCAGCAAUAUUACGACUG | -0.803 ± 0.077 | -0.505 ± 0.092 |
| CUUCAGCAAUAUUACGAGUG | -0.689 ± 0.051 | -0.602 ± 0.071 |
| CUUCAGCAAUAUUACGAUUG | -0.473 ± 0.045 | 0.038 ± 0.063 |
| CUUCAGCAAUAUUACGCAAG | -4.31 ± 0.26 | -1.81 ± 0.2 |
| CUUCAGCAAUAUUACGCAGU | -3.96 ± 0.43 | -2.9 ± 0.33 |
| CUUCAGCAAUAUUACGCCUG | -0.748 ± 0.074 | 0.268 ± 0.1 |

| Sequence | self-splicing fitness (ln) (30 °C) | self-splicing fitness (ln) (37 °C) |
| --- | --- | --- |
| CUUCAGCAAUAUUACGCGAU | -2.85 ± 0.32 | -1.19 ± 0.38 |
| CUUCAGCAAUAUUACGCUGA | -2.41 ± 0.17 | -2.56 ± 0.29 |
| CUUCAGCAAUAUUACGCUGC | – | -1.65 ± 0.18 |
| CUUCAGCAAUAUUACGGAUU | -2.13 ± 0.18 | -1.75 ± 0.16 |
| CUUCAGCAAUAUUACGGCCG | -0.988 ± 0.16 | -0.154 ± 0.21 |
| CUUCAGCAAUAUUACGGCUA | -3.01 ± 0.2 | -2.06 ± 0.24 |
| CUUCAGCAAUAUUACGGGAG | -3.41 ± 0.24 | -2.52 ± 0.22 |
| CUUCAGCAAUAUUACGGUCG | -0.131 ± 0.062 | -0.155 ± 0.093 |
| CUUCAGCAAUAUUACGUAUA | -3.15 ± 0.27 | -1.98 ± 0.2 |
| CUUCAGCAAUAUUACGUAUG | -0.871 ± 0.066 | -0.276 ± 0.074 |
| CUUCAGCAAUAUUACGUCGA | -4.35 ± 0.46 | -2.95 ± 0.3 |
| CUUCAGCAAUAUUACGUCUA | – | -2.38 ± 0.32 |
| CUUCAGCAAUAUUACGUGGA | -3.13 ± 0.33 | -3.04 ± 0.28 |
| CUUCAGCAAUAUUACGUUAA | -2.84 ± 0.24 | -3.51 ± 0.46 |
| CUUCAGCAAUAUUACGUUUU | -1.52 ± 0.13 | -2.46 ± 0.26 |
| CUUGAGCAAUAUUACGAAAG | -2.3 ± 0.25 | -3.32 ± 0.46 |
| CUUGAGCAAUAUUACGAAGA | -2.53 ± 0.27 | -3.17 ± 0.37 |
| CUUGAGCAAUAUUACGACCG | -1.68 ± 0.19 | -1.16 ± 0.26 |
| CUUGAGCAAUAUUACGAGAC | -2.12 ± 0.33 | – |
| CUUGAGCAAUAUUACGAUGA | -1.49 ± 0.23 | -2.03 ± 0.28 |
| CUUGAGCAAUAUUACGAUGC | -3.25 ± 0.3 | -2.5 ± 0.41 |
| CUUGAGCAAUAUUACGAUUG | -2.49 ± 0.13 | -1.32 ± 0.14 |
| CUUGAGCAAUAUUACGCAAG | -2.37 ± 0.42 | – |
| CUUGAGCAAUAUUACGCAGU | -2.73 ± 0.23 | -2.64 ± 0.37 |
| CUUGAGCAAUAUUACGCCGU | -3.24 ± 0.29 | – |

From the supplement of paper PMC7877785
